Laboratory results taken from the nanobody polyreactivity screen of Harvey et al. (2022).

Assay: yeast display, Sf9 membrane polyspecificity reagent, FACS + sequencing; frameworks hold sequencing errors
Method in brief: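 Synthetic nanobody libraries on Saccharomyces cerevisiae BJ5465 were galactose-induced for 36–48 hours, stained 1 hour at 4 °C with 10% biotinylated, detergent-solubilized Sf9 membrane reagent and enriched on streptavidin microbeads. FACS then separated cells into low and high (top ~1%) gates by anti-HA (expression) and streptavidin (reagent binding) fluorescence. Genes were colony-PCR amplified, MiSeq 2 × 250 sequenced and CDR-length filtered. A clone's polyreactivity label is that of its gate of origin.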

Sequence	polyreactivity (PSR sort gate)
QVQLVESGGGLVQAGGSLRLSCAASGYIFHSYVMGWYRQAPGKERELVAAITSDDDSTFYADSVKGRFTISRDNAKNTVYLQMNSLKPEETGVYYCAADGYYQYDKDTYYSTSDYWGQGTQVTVSS	low polyreactivity
QVQLVESGGGLVQAGGSLRLSCAASGYIFIRNAMGWYRPAPGKDRELVAAISWTGGNTYYADSVKGRFTISRDNAKNTVYLQMNSLKPEDTAVYYCAALRSVFKSFRTTYVRYDYWGQATQVTVSS	high polyreactivity
QVQLVESGGGLVQAGGSLRLSCAASGYIFIWYDMGWYRQAPGKERELVAAISGSGGSTYYADSVKGRFTISRDNAKNTVYLQMNSLKPEDTAVYYCAAYVPRGNSEVIAMDYWGQGTQVTVSS	low polyreactivity
QVQLVESGGGLVQAGGSLRLSCAASGYIFKIKAMGWYRQAPGKERELVATITWSTGTTYYADSVKGRFTISRDNAKNTVYLQMNSLKPEDTAVYYCNATAIIRIGVLPGDYWGQGTQVTVSS	low polyreactivity
QVQLVESGGGLVQAGGSLRLSCAASGYIFKRYAIGWNRQAPGKERELVAAISGNGGSTYYADSVKGRFTISRDNAKNTVYFQMNSLKPEDTAVYYCNKSGYYSPTSKGEYWGQGTQVTVSS	low polyreactivity
QVQLVESGGGLVQAGGSLRLSCAASGYIFKRYAMGWYRQAPGKERELVAAISSRGGSTYYADSVKGRFTISRDNAKNTVYLQMNSLKPEDTAVYYCAAVSWFRNYYWGQGTQVTVSS	high polyreactivity
QVQLVESGGGLVQAGGSLRLSCAASGYIFKYNTMGWYRQAPGKERELVAAISTGGNTYYADSVKGRFTISRDNAKNTVYLQMNSLKPEDTAVYYCAALSGAHEHFVEYDYWGQGTQVTVSS	low polyreactivity
QVQLVESGGGLVQAGGSLRLSCAASGYIFLAYAMGWYRQAPGKERELVADNTYADSVKGRFTISRDNAKNTVYLQMNSLKPEDTAVYYCNADEVYDEYSYDYWGQGTQVTVSS	low polyreactivity
QVQLVESGGGLVQAGGSLRLSCAASGYIFLRNALGWYRQAPGKERELVAAIRRTGGSTYYADSVKGRFTISRDNAKNTVYLQMNSLKPEDTAVYYCAKRSYTGYEYWGQGTQVTVSS	low polyreactivity
QVQLVESGGGLVQAGGSLRLSCAASGYIFPEYVMGWYRQAPGKERELVAVITWDGTSTYADSVKGRFTISRDNAKNTVYLQMNSLKPEDTAVYYCAADTNYYVDTAGYGDGLDSWGQGTQVTVSS	low polyreactivity
QVQLVESGGGLVQAGGSLRLSCAASGYIFPGNAMGWYRQAPGKERELVAAISSRGGRTYYADSVKGRFTISRDNAKNTVYLQMNSLKPEDTAVYYCAKGGKVGSTLEYDYWGQGTQVTVSS	high polyreactivity
QVQLVESGGGLVQAGGSLRLSCAASGYIFPTNAMGWYRQAPGKERELVAVITSGGSTYYADSVKGRFTISRDNAKNTVYLQMNSLKPEDNAVYYCAARYPGRYGIYRVLYGYWGQGTQVTVSS	high polyreactivity
QVQLVESGGGLVQAGGSLRLSCAASGYIFPYYAMGWYRQAPGKERELVAAISRSGGGTYYADSVKGRFTISRDNAKNTVYLQMNSLKPEDTAVYYCNRRSGHVHEYDYWGQGTQVTVSS	low polyreactivity
QVQLVESGGGLVQAGGSLRLSCAASGYIFQDYAMGWYRQAPAKERELVARISAGGGRTYYADSVKGRFTISRDNAKNTVYLQMISLKPEDTAVYYCAAPLSYYWVYIVRYGYDYWGQGTQVTVSS	low polyreactivity
QVQLVESGGGLVQAGGSLRLSCAASGYIFRFNAMGWYRQAPGKERELVAVNTSGARTYYADSVKGRFTISRDNAKNTVYLQMNSLKPEDTAVYYCNAGARRYLYDYWGQGTQVTVSS	low polyreactivity
QVQLVESGGGLVQAGGSLRLSCAASGYIFRGYVMGWYRQAPGKERELVAAITSSGGSTYYADSVKGRFTISRDNAKNTVYLQMISLKPEDTAVYYCAARGYSPHYYWGQGTQVTVSS	high polyreactivity
QVQLVESGGGLVQAGGSLRLSCAASGYIFRVYAMGWYRQAPGKERELVAAISSGGSTYYADSVKGRFTISRDNAKNTVYLQMNSLKPEDTAVYYCAKAGLALYAFRDDYWGQGTQVTVSS	low polyreactivity
QVQLVESGGGLVQAGGSLRLSCAASGYIFSGYAMGWYRQAPGKERELVAAISSNGGSTYYADSVKGRFTISRDNAKNTVYLQMNSLKPEDTAVYYCNRGLAARVGRGDYWGQGTQVTVSS	low polyreactivity
QVQLVESGGGLVQAGGSLRLSCAASGYIFSHYAMAWYRQAPGKERELVAAISRNGGSTYYADSVKGRFTISRDNAKNTVYLQMNSLKPEDTSVYYCAVGWKYRYGYWGQGTQVTVSS	high polyreactivity
QVQLVESGGGLVQAGGSLRLSCAASGYIFSVNAMGWYRQAPGKERELVAAIRGSGGSTFYADSVKGRFTISRDNAKNTVYLQMNSLKPEDTAVYYCAAYWRGRYDYWGQGTQVTVSS	low polyreactivity

Sequence	polyreactivity (PSR sort gate)
QVQLVESGGGLVQAGGSLRLSCAASGYIFSYNAMGWYRQAPGKERELVAAISRTGGSTNYADSVKGRFTISRDNAKNTVYLQMNSLKPEDTAVYYCAKRYRYPSWGEYGYWGQGTQVTVSS	high polyreactivity
QVQLVESGGGLVQAGGSLRLSCAASGYIFTPYAMGWYRQAPGKERELVAAITGSGSSTYYADSVKGRFTISRDNAKNTVYLQMNSLKPEDTAGYYCAADSYGFYGYYYYELEYWGQGTQVTVSS	low polyreactivity
QVQLVESGGGLVQAGGSLRLSCAASGYIFTYNALGWSRQAPGKDRELVAAISSGHGRTYYADSVKGRFTISRDHAQNTVDLEMNSLKPEDTAVYYCNASRVVYRQAYLYGYDYWGQGTQVTVSS	low polyreactivity
QVQLVESGGGLVQAGGSLRLSCAASGYIFVFNTMGWYRQAPGKERELVASISWDAGSTYYADSVKGRFTISRDNAKNTVYLQMNSLKPEDTAVDYCNAGRIRSGSPDYWGQGTQVTVSS	low polyreactivity
QVQLVESGGGLVQAGGSLRLSCAASGYIFVKNAMGWYRQEPGKERELVAAISSSGGSTYYADSVKGRFTISRDNAKNTVYLQMNSLKPEDTAVYYCNVYGSYTSVSRQSDWWPDYGYWGQGTQVTVSS	low polyreactivity
QVQLVESGGGLVQAGGSLRLSCAASGYIFVRNAMGWYRQAPGKERELVAAISGSGGSTYYADSVKGRFTISRDNAKNTVYLQMNSLKPEDTAVYYFAADYATVTWRGIAYDYWGQGTQVSVSS	low polyreactivity
QVQLVESGGGLVQAGGSLRLSCAASGYIFVRNAMGWYRQAPGKERELVAAISGSGGSTYYADSVKGRFTISRDNAKNTVYLQMNSLKPVDTAVYYCAADYATVTWRGIAYDYWGQGTQVTVSS	low polyreactivity
QVQLVESGGGLVQAGGSLRLSCAASGYIFVRYAMGWYRQAPGKEREFVAAISSSGGSTRYADSVKGRFTISRDNAKNTVYLQMNSLKPEDTAVYYCAATRVARHGSPMYYWGQGTEVTVSS	high polyreactivity
QVQLVESGGGLVQAGGSLRLSCAASGYIFVWYDMGWYRHAPGKERELVAAITWSGGSTYADSVKGRFTISRDNAKNTVYLQMNSLIPEDTAVDYCNADNNLDVYVDYGFNYWGQGTQVTVSS	low polyreactivity
QVQLVESGGGLVQAGGSLRLSCAASGYIFYFNAMGWYRQAPGKEREVVAAITFSGGATYYADSVKGRFTISRDTAKNTVYLQMNSLKPEDTAVYYCAAASRRSGAYTFYRTTSGAYGYWGQGTQVTVSS	high polyreactivity
QVQLVESGGGLVQAGGSLRLSCAASGYIFYGYVMGWYRQAPGKERELVAGITYSGGGGTHYADSVKGRFTISRDNAKNTVYLQMNSLKPEDTAVYYCATADPQLNRTYYSYGMDYWGQGTQVTVSS	low polyreactivity
QVQLVESGGGLVQAGGSLRLSCAASGYIFYTYAMGWYRQAPGKERELVAGITGSGGSTYYADSVKGRFTISRDNAKNTVYLQMNSLKPEDTAVYYCANDIYQIGYRRYDSWGQGTQVTVSS	low polyreactivity
QVQLVESGGGLVQAGGSLRLSCAASGYIIFGNAMGWYRQAPGKERELVAAIRWRGTSTYYADSVKGRFTISRDNAKNTVYLQMNSLKPEDTAVYYCAADVVRSNFYGTFLYDYDYWGQGTQVTVSS	low polyreactivity
QVQLVESGGGLVQAGGSLRLSCAASGYIILLYAMGWYRQAPGKERELVAAISTRDGSTYYADSVKGRFTISRDNGKITVYLQMNSLNPEDTAVYYCATLYYYNYCGQGTQVTVSS	high polyreactivity
QVQLVESGGGLVQAGGSLRLSCAASGYIIRGYVMGWYRQAPGKERELVAAITSRGDSTYYADSVKGRFTISRDNAKNTVYLQMNSLIPEDTAVYYCYFYFRRQYEHEYWGQGTQVTVSS	high polyreactivity
QVQLVESGGGLVQAGGSLRLSCAASGYILGVYAMGWYRQAPGKERDLVASISRSGGSTYYADSVKGRFTISRDNAKNTVYLQMNSLKTEDSAVYYCSNRSRTAHFRLRYDYWGQGTQVTVSS	low polyreactivity
QVQLVESGGGLVQAGGSLRLSCAASGYILHRNAMGWYRQAPGKERELVAVISWGGTSTYYADSVKGRFTISRDNAKNTVYLLMNSLKPEDTAVYYCNAKGWYYKYDYWGQGTQVNVSS	high polyreactivity
QVQLVESGGGLVQAGGSLRLSCAASGYILRYYGLGWYRQAPGKERELVAAITRGVSTNYADSVKGRFSISRDNAKNTVYLKMNSLKPEDTAVYYCAAKYYPYSSLSKPWTMDYWGQGTQVTVSS	low polyreactivity
QVQLVESGGGLVQAGGSLRLSCAASGYILTHYAMGWYRQAPGKERELVAAITRVGNSNYADSVKGRFTISRDNAKNTVYLQMNSLKPEDTAVYYCAADGVASLFGDPPTEFDYWGQGTQVTVSS	low polyreactivity
QVQLVESGGGLVQAGGSLRLSCAASGYISRYNTMGWYRHAPGKERELVAAITWSGGSTYADSVKGRFTISRDNAKNTVYLQMNSLKQEDTAVYYCAAGAYIWDNYSYRWYDYWGQGTQVTVSS	high polyreactivity
